Our source for the In-vitro titer (%) (EC50 of cAMP in RIN-m5F cells, compared) values is patent US20150056223A1, “PHARMACEUTICAL COMPOSITION FOR THE PREVENTION OR TREATMENT OF NON-ALCOHOLIC FATTY LIVER DISEASE” (HANMI SCIENCE CO., LTD, priority 2012, published 2015).

For the assay, the target named is GLP-1 receptor of RIN-m5F rat insulinoma cells (rat) (UniProt P32301).

Exendin-4(Lys27)-PEG-Fc returned an In-vitro titer (%) (EC50 of cAMP in RIN-m5F cells, compared) of 6.3%.

Exendin-4(N)-PEG-Fc showed an In-vitro titer (%) (EC50 of cAMP in RIN-m5F cells, compared) below 0.2%.
